Source: patent publication US20080058636A1, “METHODS OF MYOCARDIAL IMAGING” (Epix Pharmaceuticals, Inc., priority 2005, published 2008)
Bridge positions count the residues as written; N and C are the ends. Square brackets hold non-standard residues; d marks the D form. Ends that are not written are not given here.

Assays:
[1] = target: human collagen type I (acid soluble, extracted from placenta, Sigma C7774) (human) (UniProt P02452); experiment: dried collagen assay
[2] = target: rat collagen (acid soluble, type I, rat tail, Upstate 08-115) (rat) (UniProt P02454); experiment: dried collagen assay
rat collagen (acid soluble, type I, rat tail, Upstate 08-115) (rat), sequence (P02454 152-1207, chain 1 of 2): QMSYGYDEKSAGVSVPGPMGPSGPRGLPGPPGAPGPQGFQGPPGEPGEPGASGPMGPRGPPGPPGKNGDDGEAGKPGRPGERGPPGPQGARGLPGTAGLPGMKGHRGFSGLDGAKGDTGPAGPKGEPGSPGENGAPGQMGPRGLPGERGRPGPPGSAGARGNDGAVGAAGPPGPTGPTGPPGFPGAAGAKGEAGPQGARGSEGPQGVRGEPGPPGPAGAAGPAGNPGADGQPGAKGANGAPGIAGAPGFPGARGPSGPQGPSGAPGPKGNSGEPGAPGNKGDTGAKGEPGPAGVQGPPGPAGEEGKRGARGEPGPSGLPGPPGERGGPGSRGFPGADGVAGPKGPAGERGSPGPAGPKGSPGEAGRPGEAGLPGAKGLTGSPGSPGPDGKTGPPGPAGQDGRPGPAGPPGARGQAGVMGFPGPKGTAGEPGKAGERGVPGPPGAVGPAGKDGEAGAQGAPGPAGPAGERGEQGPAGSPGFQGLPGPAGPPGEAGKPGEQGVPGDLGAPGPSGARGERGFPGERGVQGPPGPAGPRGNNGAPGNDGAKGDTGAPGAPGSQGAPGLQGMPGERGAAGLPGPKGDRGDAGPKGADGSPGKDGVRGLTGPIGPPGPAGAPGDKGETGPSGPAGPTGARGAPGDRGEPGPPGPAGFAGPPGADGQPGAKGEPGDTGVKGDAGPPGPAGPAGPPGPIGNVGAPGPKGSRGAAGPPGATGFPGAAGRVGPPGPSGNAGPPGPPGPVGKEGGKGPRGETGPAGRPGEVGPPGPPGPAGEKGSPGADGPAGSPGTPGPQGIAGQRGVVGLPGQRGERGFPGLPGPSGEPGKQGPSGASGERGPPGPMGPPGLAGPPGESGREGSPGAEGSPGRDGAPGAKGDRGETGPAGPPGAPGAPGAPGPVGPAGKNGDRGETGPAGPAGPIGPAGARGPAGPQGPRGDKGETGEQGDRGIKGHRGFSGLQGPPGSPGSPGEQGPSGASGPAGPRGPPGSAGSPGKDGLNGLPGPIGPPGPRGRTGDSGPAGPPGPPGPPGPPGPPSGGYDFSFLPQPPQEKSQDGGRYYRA
rat collagen (acid soluble, type I, rat tail, Upstate 08-115) (rat), sequence (P02466 86-1125, chain 2 of 2, further chain): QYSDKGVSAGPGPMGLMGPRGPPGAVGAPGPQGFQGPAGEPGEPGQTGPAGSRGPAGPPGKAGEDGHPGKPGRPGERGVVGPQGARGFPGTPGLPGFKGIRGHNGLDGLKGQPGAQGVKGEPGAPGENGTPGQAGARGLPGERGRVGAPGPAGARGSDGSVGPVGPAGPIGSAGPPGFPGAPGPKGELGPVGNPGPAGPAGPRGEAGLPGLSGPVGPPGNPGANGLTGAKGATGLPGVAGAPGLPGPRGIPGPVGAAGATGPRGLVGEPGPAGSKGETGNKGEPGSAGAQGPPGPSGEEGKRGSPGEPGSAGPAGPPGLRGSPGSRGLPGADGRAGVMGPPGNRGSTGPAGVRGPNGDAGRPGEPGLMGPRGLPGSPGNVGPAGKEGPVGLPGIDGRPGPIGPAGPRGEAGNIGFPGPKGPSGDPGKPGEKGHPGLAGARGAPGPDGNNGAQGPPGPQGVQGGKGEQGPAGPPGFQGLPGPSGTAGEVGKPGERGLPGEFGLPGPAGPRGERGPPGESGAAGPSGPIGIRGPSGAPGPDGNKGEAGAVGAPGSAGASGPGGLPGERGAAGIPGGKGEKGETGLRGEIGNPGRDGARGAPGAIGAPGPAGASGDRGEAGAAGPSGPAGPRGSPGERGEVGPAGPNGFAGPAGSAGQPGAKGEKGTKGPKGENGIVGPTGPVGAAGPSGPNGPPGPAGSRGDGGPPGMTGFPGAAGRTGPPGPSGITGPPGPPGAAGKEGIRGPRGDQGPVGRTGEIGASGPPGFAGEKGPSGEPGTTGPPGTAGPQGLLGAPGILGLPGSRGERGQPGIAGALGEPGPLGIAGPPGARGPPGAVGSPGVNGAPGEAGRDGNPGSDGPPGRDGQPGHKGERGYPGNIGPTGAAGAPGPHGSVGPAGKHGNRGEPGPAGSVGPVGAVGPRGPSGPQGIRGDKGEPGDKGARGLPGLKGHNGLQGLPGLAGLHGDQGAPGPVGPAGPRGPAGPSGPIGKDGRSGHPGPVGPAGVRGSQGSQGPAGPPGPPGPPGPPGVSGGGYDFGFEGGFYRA

[3] = target: human collagen type I (acid soluble, extracted from placenta, Sigma C7774) (human) (UniProt P02452); experiment: dried collagen assay, 5 uM each
[4] = target: rat collagen (acid soluble, type I, rat tail, Upstate 08-115) (rat) (UniProt P02454); experiment: dried collagen assay, 5 uM each

human collagen type I (acid soluble, extracted from placenta, Sigma C7774) (human), sequence (P02452 162-1218 limits assumed, chain 1 of 2): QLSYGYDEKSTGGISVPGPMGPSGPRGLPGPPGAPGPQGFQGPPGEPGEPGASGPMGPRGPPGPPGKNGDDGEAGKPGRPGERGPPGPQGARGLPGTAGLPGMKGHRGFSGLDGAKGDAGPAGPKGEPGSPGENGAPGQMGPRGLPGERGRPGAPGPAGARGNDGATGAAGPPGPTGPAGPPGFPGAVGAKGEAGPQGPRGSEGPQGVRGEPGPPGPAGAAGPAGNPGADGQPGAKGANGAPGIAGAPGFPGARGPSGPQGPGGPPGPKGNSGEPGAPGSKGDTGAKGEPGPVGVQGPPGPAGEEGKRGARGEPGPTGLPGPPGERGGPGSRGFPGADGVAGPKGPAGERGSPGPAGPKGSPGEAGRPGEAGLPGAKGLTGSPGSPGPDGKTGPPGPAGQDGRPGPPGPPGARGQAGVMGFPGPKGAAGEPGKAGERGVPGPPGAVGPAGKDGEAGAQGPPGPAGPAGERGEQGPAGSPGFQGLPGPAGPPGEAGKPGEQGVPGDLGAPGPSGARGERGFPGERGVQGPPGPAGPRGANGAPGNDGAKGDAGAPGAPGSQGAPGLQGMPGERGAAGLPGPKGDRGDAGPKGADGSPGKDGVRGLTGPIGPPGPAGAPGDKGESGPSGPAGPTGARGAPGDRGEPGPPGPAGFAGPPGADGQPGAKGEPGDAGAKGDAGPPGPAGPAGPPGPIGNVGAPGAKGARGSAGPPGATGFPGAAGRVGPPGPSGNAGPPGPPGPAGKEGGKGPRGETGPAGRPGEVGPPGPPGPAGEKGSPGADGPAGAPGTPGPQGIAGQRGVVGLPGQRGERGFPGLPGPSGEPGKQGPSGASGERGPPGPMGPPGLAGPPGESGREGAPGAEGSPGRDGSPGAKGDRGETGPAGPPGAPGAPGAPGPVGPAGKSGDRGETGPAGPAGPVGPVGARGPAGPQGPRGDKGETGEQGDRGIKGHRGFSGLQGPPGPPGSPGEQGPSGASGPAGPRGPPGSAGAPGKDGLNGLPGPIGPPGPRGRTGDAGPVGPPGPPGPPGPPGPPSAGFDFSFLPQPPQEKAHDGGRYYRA
human collagen type I (acid soluble, extracted from placenta, Sigma C7774) (human), sequence (P08123 80-1119 limits assumed, chain 2 of 2, further chain): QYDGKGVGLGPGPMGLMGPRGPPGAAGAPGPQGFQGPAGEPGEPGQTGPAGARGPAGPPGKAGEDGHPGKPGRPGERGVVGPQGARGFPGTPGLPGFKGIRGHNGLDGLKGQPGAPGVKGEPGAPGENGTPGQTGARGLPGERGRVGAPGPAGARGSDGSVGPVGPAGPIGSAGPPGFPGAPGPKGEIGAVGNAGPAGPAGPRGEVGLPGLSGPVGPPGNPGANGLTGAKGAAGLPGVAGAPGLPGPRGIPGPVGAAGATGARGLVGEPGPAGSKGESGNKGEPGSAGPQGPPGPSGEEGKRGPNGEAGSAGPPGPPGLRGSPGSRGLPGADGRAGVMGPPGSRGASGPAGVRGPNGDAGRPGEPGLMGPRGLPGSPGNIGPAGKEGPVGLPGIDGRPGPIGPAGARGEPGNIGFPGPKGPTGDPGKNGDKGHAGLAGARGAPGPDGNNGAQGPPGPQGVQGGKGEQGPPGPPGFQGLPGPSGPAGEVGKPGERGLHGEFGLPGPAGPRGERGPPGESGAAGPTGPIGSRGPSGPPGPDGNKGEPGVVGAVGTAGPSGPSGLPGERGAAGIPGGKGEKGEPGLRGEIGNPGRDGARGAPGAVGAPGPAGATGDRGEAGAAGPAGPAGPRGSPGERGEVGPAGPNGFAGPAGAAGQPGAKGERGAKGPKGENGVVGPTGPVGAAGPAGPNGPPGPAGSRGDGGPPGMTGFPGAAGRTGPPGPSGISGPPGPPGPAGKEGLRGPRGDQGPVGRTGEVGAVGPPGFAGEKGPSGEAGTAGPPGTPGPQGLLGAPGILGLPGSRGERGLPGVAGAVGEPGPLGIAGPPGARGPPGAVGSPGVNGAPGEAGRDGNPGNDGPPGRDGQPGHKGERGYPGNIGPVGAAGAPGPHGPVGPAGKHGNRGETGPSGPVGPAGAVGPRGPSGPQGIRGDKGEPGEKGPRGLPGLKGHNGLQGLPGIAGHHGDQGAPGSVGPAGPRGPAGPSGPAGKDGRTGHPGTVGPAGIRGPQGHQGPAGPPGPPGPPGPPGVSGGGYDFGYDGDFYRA

B1: SEQ ID NO: 85 (peptide)
peptide: GWTCSQPGANVWNCTMQ
modifications: disulfide 4-14; not fully specified (C-terminus)
- Dried Human Collagen Binding [1]: 3%

B2: SEQ ID NO: 3 (peptide)
peptide: PWWCHEMPSMCFGF
modifications: disulfide 4-11; also: C-terminus probably amidated (Rink amide resin)
- Dried Human Collagen Binding [1]: 2%

B3: SEQ ID NO: 124 (peptide)
chain: GQWTCSGDEY[dA]WHCNA[dE]
modifications: disulfide 5-14 (inferred)
- % Collagen Binding [1]: 24%
- % Collagen Binding [2]: 17%

B4: SEQ ID NO: 137 (peptide)
peptide: YHACYQAGCWAW
modifications: disulfide 4-9; not fully specified
- % Collagen Binding [2]: 7%

B5: SEQ ID NO: 120 (peptide)
chain: DWTCSGDEYAWHCNYE
- % Collagen Binding [1]: 38%
- % Collagen Binding [2]: 28%

B6: SEQ ID NO: 5 (peptide)
peptide: NWKCWGVVKWECIWA
modifications: disulfide 4-12; also: C-terminus presumably amidated (Rink amide resin)
- Dried Human Collagen Binding [1]: 24%

B7: SEQ ID NO: 126 (peptide)
chain: GQWTCSGDEYAWHCNY[dE]
modifications: disulfide 5-14 (inferred)
- % Collagen Binding [1]: 68%
- % Collagen Binding [2]: 73%

B8: SEQ ID NO: 6 (peptide)
peptide: TWQCSGNQKWSCEWF
modifications: disulfide 4-12; also: C-terminus probably amidated (Rink amide resin)
- Dried Human Collagen Binding [1]: 20%

B9: SEQ ID NO: 82 (peptide)
peptide: LWTCSMDRNYDWVCGEK
modifications: disulfide 4-14; not fully specified (C-terminus)
- Dried Human Collagen Binding [1]: 3%

B10: SEQ ID NO: 142 (peptide)
peptide: GQWTCSADEYTWHCNYE
modifications: disulfide 5-14; not fully specified
- % Collagen Binding [2]: 6%

B11: SEQ ID NO: 9 (peptide)
peptide: TWNCYGVTEWHCYMI
modifications: disulfide 4-12; not fully specified (C-terminus)
- Dried Human Collagen Binding [1]: 7%

B12: SEQ ID NO: 83 (peptide)
peptide: GWACNTTSKGDWECTNL
modifications: disulfide 4-14; not fully specified (C-terminus)
- Dried Human Collagen Binding [1]: 3%

B13: SEQ ID NO: 99 (peptide)
peptide: AKKCWYNDGGHLRCRTL
modifications: disulfide 4-14; not fully specified (C-terminus)
- Dried Human Collagen Binding [1]: 3%

B14: SEQ ID NO: 36 (peptide)
peptide: SWSCGGDHNAWKCQYS
modifications: disulfide 4-13; also: C-terminus probably amidated (Rink amide resin)
- Dried Human Collagen Binding [1]: 7%

B15: SEQ ID NO: 39 (peptide)
peptide: GWQCSGDASVWNCDWI
modifications: disulfide 4-13; also: C-terminus probably amidated (Rink amide resin)
- Dried Human Collagen Binding [1]: 6%

B16: Compound ID 1017 (peptide)
chain: KKLWHCYTYFPHHYCVYG
- Human binding [3]: 25%
- Rat binding [4]: 18%

B17: SEQ ID NO: 1 (peptide)
peptide: YHACYQAGCWIW
modifications: disulfide 4-9; not fully specified (C-terminus)
- Dried Human Collagen Binding [1]: 56%

B18: Compound ID NO. 1014 (peptide)
chain: KKWHCYTYFPHHYCVYG
modifications: disulfide 5-14 (inferred); also: coupled to ITC-Gd3 (tris-Gd-DOTAGA isothiocyanate), site not given here
- Human binding [3]: 72%
- Rat binding [4]: 61%

B19: SEQ ID NO: 41 (peptide)
peptide: VWACRGGTTNWHCDL
modifications: disulfide 4-13; also: C-terminus probably amidated (Rink amide resin)
- Dried Human Collagen Binding [1]: 1%

B20: SEQ ID NO: 4 (peptide)
peptide: TWMCVDPPLWRCWVQ
modifications: disulfide 4-12; also: C-terminus probably amidated (Rink amide resin)
- Dried Human Collagen Binding [1]: 45%

B21: SEQ ID NO: 78 (peptide)
peptide: TWACDLDEYGGWQCYTG
modifications: disulfide 4-14 (inferred); also: C-terminal amide likely (Rink amide resin)
- Dried Human Collagen Binding [1]: 8%

B22: SEQ ID NO: 166 (peptide)
chain: GQW[dT]CSGDEYTWHCNYE
modifications: disulfide 5-14 (inferred)
- % Collagen Binding [1]: 2%
- % Collagen Binding [2]: 3%

B23: Compound ID 1015 (peptide)
chain: KKGWHCYTYFPHHYCTYG
- Human binding [3]: 29%
- Rat binding [4]: 30%

B24: SEQ ID NO: 165 (peptide)
chain: GQ[dW]TCSGDEYTWHCNYE
modifications: disulfide 5-14 (inferred)
- % Collagen Binding [1]: 2%
- % Collagen Binding [2]: 4%

B25: SEQ ID NO: 164 (peptide)
chain: G[dQ]WTCSGDEYTWHCNYE
modifications: disulfide 5-14 (inferred)
- % Collagen Binding [1]: 46%
- % Collagen Binding [2]: 31%

B26: SEQ ID NO: 35 (peptide)
peptide: YWVCGGDHQSWHCSHP
modifications: disulfide 4-13; also: C-terminus probably amidated (Rink amide resin)
- Dried Human Collagen Binding [1]: 8%

B27: SEQ ID NO: 67 (peptide)
peptide: GWSCHSMDMQWHCDFS
modifications: disulfide 4-13 (inferred); also: C-terminus likely amidated (Rink amide resin)
- Dried Human Collagen Binding [1]: 5%

B28: SEQ ID NO: 8 (peptide)
peptide: GWQCFGASDWHCTWV
modifications: disulfide 4-12; not fully specified
- Dried Human Collagen Binding [1]: 9%

B29: SEQ ID NO: 108 (peptide)
peptide: YHACYQAGCYIY
modifications: disulfide 4-9; not fully specified (C-terminus)
- % Collagen Binding [1]: 5%

B30: SEQ ID NO: 121 (peptide)
chain: PWTCSGDEYAWHCNYE
- % Collagen Binding [1]: 57%
- % Collagen Binding [2]: 72%

B31: SEQ ID NO: 66 (peptide)
peptide: RWSCVLDADGWVCSDN
modifications: disulfide 4-13 (inferred); also: C-terminus likely amidated (Rink amide resin)
- Dried Human Collagen Binding [1]: 6%

B32: Compound ID 1013 (peptide)
chain: GKWHCYTKFPHHYCKYY
- Human binding [3]: 81%
- Rat binding [4]: 88%

B33: SEQ ID NO: 38 (peptide)
peptide: GWSCHGDAADWPCQWS
modifications: disulfide 4-13; also: C-terminus probably amidated (Rink amide resin)
- Dried Human Collagen Binding [1]: 6%

B34: SEQ ID NO: 79 (peptide)
peptide: FWTCELDFRQSWYCYDK
modifications: disulfide 4-14 (inferred); not fully specified
- Dried Human Collagen Binding [1]: 8%

B35: SEQ ID NO: 65 (peptide)
peptide: KWECVHTKGEWYCETK
modifications: disulfide 4-13 (inferred); also: C-terminus likely amidated (Rink amide resin)
- Dried Human Collagen Binding [1]: 7%

B36: SEQ ID NO: 84 (peptide)
peptide: HWSCDLAMDNEWFCSTK
modifications: disulfide 4-14; not fully specified (C-terminus)
- Dried Human Collagen Binding [1]: 3%

B37: SEQ ID NO: 37 (peptide)
peptide: LWNCHGTDANWKCVLN
modifications: disulfide 4-13; also: C-terminus probably amidated (Rink amide resin)
- Dried Human Collagen Binding [1]: 7%

B38: Compound ID 1018 (peptide)
chain: KKYWHCYTYFPHHYCVYG
- Human binding [3]: 53%
- Rat binding [4]: 55%

B39: SEQ ID NO: 125 (peptide)
chain: GQWTCSGDEYSWHCNY[dE]
modifications: disulfide 5-14 (inferred)
- % Collagen Binding [1]: 85%
- % Collagen Binding [2]: 86%

B40: SEQ ID NO: 68 (peptide)
peptide: SWHCFLENHHWMCSDH
modifications: disulfide 4-13 (inferred); also: C-terminus likely amidated (Rink amide resin)
- Dried Human Collagen Binding [1]: 5%

B41: Compound ID 1016 (peptide)
chain: KKAWHCYTYFPHHYCVYG
- Human binding [3]: 48%
- Rat binding [4]: 50%

B42: SEQ ID NO: 63 (peptide)
peptide: NWYCSQALDNWSCKLR
modifications: disulfide 4-13; also: C-terminus likely amidated (Rink amide resin)
- Dried Human Collagen Binding [1]: 8%

B43: SEQ ID NO: 81 (peptide)
peptide: QWFCEMDEYGKWNCGMM
modifications: disulfide 4-14; not fully specified (C-terminus)
- Dried Human Collagen Binding [1]: 3%

B44: SEQ ID NO: 64 (peptide)
peptide: TWICSHNDKGWTCGDQ
modifications: disulfide 4-13 (inferred); also: C-terminus likely amidated (Rink amide resin)
- Dried Human Collagen Binding [1]: 8%
